Data reported in patent US20120042415A1.

Target: wild type pokeweed antiviral protein (PAP) (pokeweed) (UniProt P10297)
Experiment: cell-based or functional assay

Chain of UniProt P10297 (P10297 23-285 limits assumed): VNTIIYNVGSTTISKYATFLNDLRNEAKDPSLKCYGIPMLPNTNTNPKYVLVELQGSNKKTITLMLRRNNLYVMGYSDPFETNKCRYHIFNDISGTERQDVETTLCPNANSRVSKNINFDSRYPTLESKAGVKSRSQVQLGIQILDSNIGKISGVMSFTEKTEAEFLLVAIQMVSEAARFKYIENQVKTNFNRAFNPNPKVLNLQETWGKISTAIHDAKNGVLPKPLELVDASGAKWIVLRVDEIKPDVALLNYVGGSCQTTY

## yeast wild type ribosomal protein L3 (full length) (from UniProt P14126 1-387)
  transformation frequency of tobacco with L3+PAP (NT243): 24%
